Experimental data published in patent US20260167712A1, “INHIBITORY ANTIBODIES AGAINST GLUT1” (ICOSAGEN CELL FACTORY OÜ, priority 2022, published 2026).
Entries after “also recorded” stand apart in the source; their conditions may differ.

T1: SLC2A2 pseudotyped VLPs (Homo sapiens, UniProt P11168)
T1 sequence (P11168 1-524): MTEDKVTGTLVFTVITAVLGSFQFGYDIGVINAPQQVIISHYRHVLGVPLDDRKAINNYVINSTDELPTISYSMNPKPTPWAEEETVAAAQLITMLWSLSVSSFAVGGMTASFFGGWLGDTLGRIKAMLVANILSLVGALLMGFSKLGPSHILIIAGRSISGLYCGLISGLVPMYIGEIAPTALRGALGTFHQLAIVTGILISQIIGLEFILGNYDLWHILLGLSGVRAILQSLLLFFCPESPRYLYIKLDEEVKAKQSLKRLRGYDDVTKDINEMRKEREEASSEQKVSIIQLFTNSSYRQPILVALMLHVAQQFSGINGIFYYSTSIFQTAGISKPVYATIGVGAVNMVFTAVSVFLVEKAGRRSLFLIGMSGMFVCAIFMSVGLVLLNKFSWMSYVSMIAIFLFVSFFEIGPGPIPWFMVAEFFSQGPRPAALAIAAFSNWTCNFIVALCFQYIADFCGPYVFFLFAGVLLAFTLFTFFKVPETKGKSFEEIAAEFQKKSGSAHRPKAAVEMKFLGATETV

T2: SLC2A3 pseudotyped VLPs (Homo sapiens, UniProt P11169)
T2 sequence (P11169 1-496): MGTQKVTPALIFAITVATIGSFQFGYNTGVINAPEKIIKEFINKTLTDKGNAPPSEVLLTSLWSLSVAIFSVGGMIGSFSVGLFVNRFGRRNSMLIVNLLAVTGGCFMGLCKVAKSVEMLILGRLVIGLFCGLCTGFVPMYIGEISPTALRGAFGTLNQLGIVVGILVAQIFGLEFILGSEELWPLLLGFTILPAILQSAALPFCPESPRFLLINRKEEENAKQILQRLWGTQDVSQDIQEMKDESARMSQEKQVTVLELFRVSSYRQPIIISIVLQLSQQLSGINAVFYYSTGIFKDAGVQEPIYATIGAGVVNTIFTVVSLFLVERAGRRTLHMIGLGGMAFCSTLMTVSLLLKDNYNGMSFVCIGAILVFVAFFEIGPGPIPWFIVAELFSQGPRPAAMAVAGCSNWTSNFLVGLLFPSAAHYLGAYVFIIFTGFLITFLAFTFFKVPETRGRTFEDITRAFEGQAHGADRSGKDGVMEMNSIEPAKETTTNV

T3: SLC2A4 pseudotyped VLPs (Homo sapiens, UniProt P14672)
T3 sequence (P14672 1-509): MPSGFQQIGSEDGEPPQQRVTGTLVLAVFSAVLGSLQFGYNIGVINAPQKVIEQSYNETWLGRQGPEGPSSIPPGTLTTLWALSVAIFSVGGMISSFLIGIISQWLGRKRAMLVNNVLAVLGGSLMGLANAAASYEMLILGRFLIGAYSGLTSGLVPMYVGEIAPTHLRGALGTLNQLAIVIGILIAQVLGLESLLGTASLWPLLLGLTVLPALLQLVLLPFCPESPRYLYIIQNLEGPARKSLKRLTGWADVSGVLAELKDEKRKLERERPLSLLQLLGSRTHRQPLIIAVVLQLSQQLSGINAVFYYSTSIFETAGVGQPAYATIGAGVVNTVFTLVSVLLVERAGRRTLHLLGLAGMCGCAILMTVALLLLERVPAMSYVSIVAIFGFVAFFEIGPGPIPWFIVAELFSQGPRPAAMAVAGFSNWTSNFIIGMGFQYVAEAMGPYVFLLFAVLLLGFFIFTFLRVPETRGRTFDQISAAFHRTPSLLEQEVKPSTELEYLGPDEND

T4: SLC2A2 pseudotyped VLPs (UniProt P11168 1-524)
T4 construct: also called SLC2A2 VLPs; GLUT2
T4 sequence: T1 sequence (P11168 1-524)

T5: SLC2A3 pseudotyped VLPs (UniProt P11169 1-496)
T5 construct: also called SLC2A3 VLPs; GLUT3
T5 sequence: T2 sequence (P11169 1-496)

T6: SLC2A4 pseudotyped VLPs (UniProt P14672 1-509)
T6 construct: also called SLC2A4 VLPs; GLUT4
T6 sequence: T3 sequence (P14672 1-509)

B1: 2E5 #22 (antibody, V domains shown)
VH: AVTLDESGGGLQTPGGALSLVCKASGFTFSTKGMGWVRQTPGKGLEWVAGISSMRRYTYYAPAVKGRATISRDNGQSTVRLQLSSLRAEDSGTYYCARDATYCSWTTSTCGWSGGTIDAWGHGTEVIVSS
VL: ALTQPSSVSANLGGTVKITCSGGSGNYGWYQQKSPGSVPVTVIYSNDKRPSDIPSRFSGSGSGSTATLTITGVQVEDEAVYFCGSRDSSYVGLFGAGTTLTVL
B2: 6F12 #33 (antibody, V domains shown)
VH: AVTLDESGGGLQTPGGALSLVCKASGFTFSDHAIFWVRQAPDKGLEFVAAISSGTGSWTAYATVVKGRATISRDNGQSTVRLQLNNLRAADTATYYCAKGAGSACCYAGSIDAWGHGTEVIVSS
VL: ALTQPSSVSANPGETVKITCSGGSSSSYYGWYQQKSPGSAPVTLIYYNDKRPSDIPSRFSGSKSGSTATLTITGVQVEDEAVYYCGTGDGSFAIFGAGTTLTVL

What was measured:
SLC2A2 pseudotyped VLPs [1] = target: T1, SLC2A2 pseudotyped VLPs; assay: ELISA-based VLP binding assay, SLC2A2; conditions: compared to MOCK VLPs, FIG. 3
Experimental: (§1) An ELISA-based VLP binding assay was carried out to compare the EC50 values of antibody clones (FIG. 1). Similarly, ELISA based VLP binding assay was performed to compare the binding of the antibodies to different glucose transporters (FIG. 3). MaxiSorp™ high-capacity binding ELISA plate (Thermo Fisher Scientific, US) were coated with 5 μg/mL SLC2A1, SLC2A2, SLC2A3, SLC2A4 pseudotyped VLPs or MOCK VLPs in PBS overnight. The plate was washed and blocked for 1 h with 0.05% Tween 20, 2% BSA in PBS. Serial dilutions of antibodies were incubated on a washed plate for 1 hour, followed by a 1-hour incubation with goat anti-human IgG horse radish peroxidase (HRP) conjugated (Invitrogen) antibody. TMB (3,3′,5,5′-Tetramethylbenzidine) Solution VII (Biopanda Diagnostics) was used as a substrate for HRP and 0.5 M H2SO4 was used as stop solution. After every step, the wells were washed with 0.05% Tween 20, 0.1% Proclin 300 PBS solution. Absorption at 450 nm was measured with Thermo Scientific™ Multiskan™ FC Microplate Photometer. Exemplary wise used antibodies 1G2 #9, 2A2 #12, 2E5 #22, 5G5 #30, 6F12 #33, 7C3 #39 all bound SLC2A1 VLPs with low nanomolar EC50 values (FIG. 1).

SLC2A3 pseudotyped VLPs [2] = target: T2, SLC2A3 pseudotyped VLPs; assay: ELISA-based VLP binding assay, SLC2A3; conditions: compared to MOCK VLPs, FIG. 3
Experimental: as §1

SLC2A4 pseudotyped VLPs [3] = target: T3, SLC2A4 pseudotyped VLPs; assay: ELISA-based VLP binding assay, SLC2A4; conditions: compared to MOCK VLPs, FIG. 3
Experimental: as §1

MCF7 breast cancer cells = assay: Cell proliferation inhibition assay (Incucyte), MCF7; format: cell-based; conditions: for MCF7 cell growth in combination with phenformin: co-treatment with phenformin, FIGS. 7 and 9
Experimental: Incucyte S3 Live cell analysis instrument and Cell-by-Cell analysis software module (Sartorius) were used to evaluate the effect of anti-SLC2A1 antibodies on cancer cell proliferation label-free (FIGS. 5-11). MCF7, PC3 or PANC1 or MIAPACA2 cells were plated on flat bottom tissue culture 96-well plate in […] medium (Ximbio) supplemented with 2.5% FBS. Cells were incubated overnight and 0.02 nM to 13 μM anti-SLC2A1 antibodies, anti-HEL isotype control, PBS or BAY-876 were added to the cells alone or in combination with metformin (CaymanChem), phenformin (Sigma Aldrich) or IACS-010759 (CaymanChem). Cell confluence or object count was measured for 24 to 96 hours with Incucyte S3 and normalized to timepoint 0 h or 4h. anti-SLC2A1 antibodies inhibit cancer cell proliferation alone and especially in combination with complex-I inhibitors metformin, phenformin and IACS-010759. Exemplary antibodies 1G2 #9, 2A2 #12, 2E5 #22, 5G5 #30, 6F12 #33, 7C3 #39 and R14 #54 were used in proliferation assays.

SLC2A2 pseudotyped VLPs [4] = target: T4, SLC2A2 pseudotyped VLPs; assay: ELISA on VLPs coated at 5 ug/mL, compared with MOCK VLPs
SLC2A3 pseudotyped VLPs [5] = target: T5, SLC2A3 pseudotyped VLPs; assay: as above
SLC2A4 pseudotyped VLPs [6] = target: T6, SLC2A4 pseudotyped VLPs; assay: as above

Molecule	binding to SLC2A2 VLPs (SLC2A2 pseudotyped VLPs [1])	binding to SLC2A3 VLPs (SLC2A3 pseudotyped VLPs [2])	binding to SLC2A4 VLPs (SLC2A4 pseudotyped VLPs [3])	MCF7 cell growth (confluence), single agent (MCF7 breast cancer cells; alone, Incucyte)	MCF7 cell growth in combination with phenformin (MCF7 breast cancer cells)	binding result (SLC2A2 pseudotyped VLPs [4])	binding result (SLC2A3 pseudotyped VLPs [5])	binding result (SLC2A4 pseudotyped VLPs [6])	MCF7 cell growth in combination with IACS-010759 (MCF7 breast cancer cells; co-treatment with IACS-010759, FIG. 8)	MCF7 cell growth in combination with metformin (MCF7 breast cancer cells; co-treatment with metformin, FIG. 6)
B1	did not bind; also recorded: Some binding	did not bind; also recorded: Some binding	did not bind; also recorded: Some binding	only a modest inhibition	completely inhibit; also recorded: most potent growth inhibitors	no binding	no binding	no binding		
B2	did not bind	did not bind	did not bind		completely inhibit; also recorded: drastically inhibited; also recorded: most potent growth inhibitors	no binding	no binding	no binding	drastically inhibited	drastically inhibited
